Results: patent publication US20180215825A1 (BEIGENE, published 2018)

Tests used:
human C1q = molecular target: T1, human C1q (human, UniProt P02745 23-245; P02746 28-253; P02747 29-245); test: ELISA: antibody coated on the plate at the x-axis concentration, human C1q added (2 µg/mL), bound C1q detected with an anti-C1q mAb
T1 construct: Bought (Cat. No. A400, Quidel); also called complement component C1q
Method: The ELISA-based C1q binding assay was done by conventional ELISA method with minor modification. […] After blocking and washing, the wells were incubated with 2 μg/mL of human C1q (Cat. No. A400, Quidel, San Diego, USA) at room temperature for 2 hours.

[1] = molecular target: T2, cynomolgus monkey PD-L1/His (cynomolgus monkey (Macaca fascicularis), UniProt G7PSE7 19-238); test: ELISA on coated cynomolgus monkey PD-L1/His, anti-human Fc-HRP [B]
T2 construct: extracellular domain; Said to be expressed and purified in a similar way to the human PD-L1/His (PD-L1-ECD/His); not shown: His tag
T2 sequence (G7PSE7 entry or part of it): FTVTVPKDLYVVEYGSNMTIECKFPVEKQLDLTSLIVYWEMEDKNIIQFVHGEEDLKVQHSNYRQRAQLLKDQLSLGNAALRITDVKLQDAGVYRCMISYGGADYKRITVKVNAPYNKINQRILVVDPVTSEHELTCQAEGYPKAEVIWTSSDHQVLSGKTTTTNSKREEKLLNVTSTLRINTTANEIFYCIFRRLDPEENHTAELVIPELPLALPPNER
Method: (§1) The monkey PD-L1/His and murine PD-L1/His were expressed and purified in a similar way to the human PD-L1/His as described earlier. […] The synthesized full length mAb was named as Y1-IgG1mc. The ELISA assay was performed essentially in the same way as described in the previous section. Briefly, 200 ng of PD-L1 protein was coated on each well of Nunc MaxiSorp ELISA plate (Cat. No. 442404, Nunc, Thermo Fisher). After washing and blocking, indicated concentrations of anti-PD-L1 mAbs were added and incubated at room temperature for 1 hour. After washing, the bound anti-PD-L1 mAbs were detected using a HRP-conjugated goat anti-human Fc antibody (Cat. No. A0170, Sigma).

human PD-L1-ECD/His = molecular target: T3, human PD-L1-ECD/His (human, UniProt Q9NZQ7 19-238); test: ELISA on coated human PD-L1/His, anti-human Fc-HRP; x-axis printed as 'Ag concentration', mAb concentration according to paragraph 44 [A]
T3 construct: Expressed in 293-F cells; also called PD-L1/His; human PD-L1/His
T3 sequence (Q9NZQ7 19-238): as the sequence (G7PSE7 entry or part of it) above, with T33A, S34A, N62S, Q68R, R82Q, L173F, A185T, I192T, L215H counted along it
Method: as §1

[2] = molecular target: T4, human PD-L1, full length, expressed on cells (human, UniProt Q9NZQ7 19-290); test: FACS competition with PD-1/Fc on HEK293/PD-L1 cells
T4 construct: also called HEK293/PD-L1 cells; HEK293/OS8/PD-L1 cells
T4 sequence (Q9NZQ7 19-290 limits assumed): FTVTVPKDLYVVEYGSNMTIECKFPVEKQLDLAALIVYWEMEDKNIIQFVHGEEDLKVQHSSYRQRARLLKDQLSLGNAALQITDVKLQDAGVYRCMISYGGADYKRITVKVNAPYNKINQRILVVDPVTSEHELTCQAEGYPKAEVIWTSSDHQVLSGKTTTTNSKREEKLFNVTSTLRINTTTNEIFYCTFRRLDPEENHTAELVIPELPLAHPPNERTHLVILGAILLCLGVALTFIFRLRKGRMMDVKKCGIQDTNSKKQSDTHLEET

mouse PD-L1/His = molecular target: T5, mouse PD-L1/His (mouse (Mus musculus), UniProt Q9EP73 19-239); test: ELISA on coated mouse PD-L1/His, anti-human Fc-HRP [C]
T5 construct: extracellular domain; Said to be expressed and purified in a similar way to the human PD-L1/His; also called murine PD-L1/His; murine PD-L1; not shown: His tag
T5 sequence (Q9EP73 19-239): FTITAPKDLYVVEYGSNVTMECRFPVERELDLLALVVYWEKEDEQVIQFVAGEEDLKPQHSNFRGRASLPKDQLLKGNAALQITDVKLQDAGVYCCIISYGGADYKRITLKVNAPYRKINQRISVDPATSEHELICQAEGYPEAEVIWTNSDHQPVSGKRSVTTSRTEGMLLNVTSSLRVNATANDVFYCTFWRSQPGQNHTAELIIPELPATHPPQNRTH
Method: as §1

[3] = molecular target: T6, human FcγRIIB expressed on HEK293 cells (human, UniProt P31994 43-310); test: FACS, monomeric mAb on FcγR-expressing HEK293 cells, goat anti-human IgG F(ab')2-Alexa Fluor 488 detection
T6 construct: whole, on cells
T6 sequence (looked up): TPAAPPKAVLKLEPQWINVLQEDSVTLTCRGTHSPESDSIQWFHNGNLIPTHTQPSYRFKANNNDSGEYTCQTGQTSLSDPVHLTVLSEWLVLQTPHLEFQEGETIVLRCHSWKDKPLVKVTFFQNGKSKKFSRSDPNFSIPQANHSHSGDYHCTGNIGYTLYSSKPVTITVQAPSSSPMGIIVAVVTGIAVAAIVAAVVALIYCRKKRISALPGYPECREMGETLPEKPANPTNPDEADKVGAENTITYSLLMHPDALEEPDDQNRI
Method: (§2) Bindings of humanized anti-PD-L1 in various IgG1 formats (wt, IgG1mc, IgG1mf, SEQ. NO. 27-29) to FcγRs were also determined by flow cytometry. In brief, a series of stable HEK293 transfectants expressing human FcγRs were established. These stable cell lines expressed FcγRI, FcγRIIAH131, FcγRIIAR131, FcγRIIB, FcγRIIIAF158 or FcγRIIIAV158, respectively. Multi-subunit FcγRs (i.e., FcγRI and FcγRIIIA) were co-expressed with FcRγ subunit.

[4] = molecular target: T7, human FcγRI expressed on HEK293 cells (human, UniProt P12314 16-374); test: as above
T7 construct: whole, on cells; Co-expressed with FcRγ subunit
T7 sequence (P12314 16-374): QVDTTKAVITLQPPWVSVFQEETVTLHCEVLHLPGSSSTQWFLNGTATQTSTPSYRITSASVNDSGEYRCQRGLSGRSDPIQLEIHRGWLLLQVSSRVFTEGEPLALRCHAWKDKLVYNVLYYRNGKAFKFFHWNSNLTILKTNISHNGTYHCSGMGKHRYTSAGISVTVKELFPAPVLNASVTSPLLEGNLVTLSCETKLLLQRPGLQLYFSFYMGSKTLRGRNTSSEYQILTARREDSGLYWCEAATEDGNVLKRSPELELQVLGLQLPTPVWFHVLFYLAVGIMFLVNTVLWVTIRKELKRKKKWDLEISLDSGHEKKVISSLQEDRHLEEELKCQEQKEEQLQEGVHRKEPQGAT
Method: as §2

[5] = molecular target: T8, human FcγRIIIAF158 expressed on HEK293 cells (human, UniProt P08637 17-254); test: as above
T8 construct: whole, on cells; Co-expressed with FcRγ subunit
T8 sequence (P08637 17-254): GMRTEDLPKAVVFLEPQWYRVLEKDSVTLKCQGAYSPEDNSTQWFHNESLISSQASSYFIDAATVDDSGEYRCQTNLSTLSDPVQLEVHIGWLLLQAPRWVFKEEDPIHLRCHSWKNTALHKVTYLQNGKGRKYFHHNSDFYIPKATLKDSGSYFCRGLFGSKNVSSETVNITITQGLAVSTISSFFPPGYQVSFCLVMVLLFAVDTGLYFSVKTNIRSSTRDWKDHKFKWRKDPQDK
Method: as §2

[6] = molecular target: T9, human FcγRIIAR131 expressed on HEK293 cells (human, UniProt P12318 34-317); test: as above
T9 construct: whole, on cells
T9 sequence (looked up): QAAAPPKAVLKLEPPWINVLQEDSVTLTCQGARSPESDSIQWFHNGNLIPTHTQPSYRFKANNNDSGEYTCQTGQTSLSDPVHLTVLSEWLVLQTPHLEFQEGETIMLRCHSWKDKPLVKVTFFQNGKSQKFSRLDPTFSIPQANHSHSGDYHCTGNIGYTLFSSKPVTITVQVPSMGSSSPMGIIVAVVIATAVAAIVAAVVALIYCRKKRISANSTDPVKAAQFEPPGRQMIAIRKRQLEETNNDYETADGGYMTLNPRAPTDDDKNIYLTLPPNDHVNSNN
Method: as §2

[7] = molecular target: T10, human FcγRIIAH131 expressed on HEK293 cells (human, UniProt P12318 34-317); test: as above
T10 construct: whole, on cells
T10 sequence (looked up): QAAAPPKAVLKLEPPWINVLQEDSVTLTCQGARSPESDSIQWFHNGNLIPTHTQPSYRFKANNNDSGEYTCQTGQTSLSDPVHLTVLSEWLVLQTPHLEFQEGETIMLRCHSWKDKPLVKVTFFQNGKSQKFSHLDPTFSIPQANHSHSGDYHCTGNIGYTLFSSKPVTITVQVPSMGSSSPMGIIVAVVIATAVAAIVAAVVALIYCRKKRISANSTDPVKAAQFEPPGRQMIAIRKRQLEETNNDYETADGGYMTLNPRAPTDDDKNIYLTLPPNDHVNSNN
Method: as §2

T1 sequence (P02745 23-245, chain 1 of 3): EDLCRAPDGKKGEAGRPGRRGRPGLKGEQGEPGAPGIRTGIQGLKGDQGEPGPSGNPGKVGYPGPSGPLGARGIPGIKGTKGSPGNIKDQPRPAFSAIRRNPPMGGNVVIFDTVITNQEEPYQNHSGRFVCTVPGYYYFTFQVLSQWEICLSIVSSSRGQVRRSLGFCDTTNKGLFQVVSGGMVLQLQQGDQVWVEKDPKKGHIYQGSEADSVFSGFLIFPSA
T1 sequence (P02746 28-253, chain 2 of 3): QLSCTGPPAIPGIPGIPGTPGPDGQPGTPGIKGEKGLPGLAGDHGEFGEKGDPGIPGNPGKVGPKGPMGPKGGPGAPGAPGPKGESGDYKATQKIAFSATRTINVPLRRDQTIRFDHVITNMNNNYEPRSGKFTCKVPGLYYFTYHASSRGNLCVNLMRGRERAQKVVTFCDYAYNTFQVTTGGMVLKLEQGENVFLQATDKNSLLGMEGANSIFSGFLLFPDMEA
T1 sequence (P02747 29-245, chain 3 of 3): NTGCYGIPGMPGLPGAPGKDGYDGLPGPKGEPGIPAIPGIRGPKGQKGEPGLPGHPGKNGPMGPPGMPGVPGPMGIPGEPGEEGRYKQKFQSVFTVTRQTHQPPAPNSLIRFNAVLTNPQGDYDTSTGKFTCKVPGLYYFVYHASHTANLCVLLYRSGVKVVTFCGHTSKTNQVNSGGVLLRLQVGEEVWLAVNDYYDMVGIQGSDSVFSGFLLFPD

B1: hu333-4A2-IgG1wt (antibody)
heavy: not shown
VL: DIQMTQSPSSLSASVGDRVTITCKASQDVGIVVAWYQQKPGKAPKLLIYWASIRHTGVPSRFSGSGSGTEFTLTISSLQPDDFATYYCQQYSNYPLYTFGQGTKVEIK
notes: light chain constant region (kappa) not tied to an entry for this form
Question: Does B1 bind (human C1q)?
Answer: Result: binds

B2: hu333-4B2-IgG1mc (antibody)
heavy: EVQLVESGGGLVQPGGSLRLSCAVSGFSLTSYGVHWVRQAPGKGLEWVAVIWAGGSTNYADSVKGRFTISKDTSKNTVYLQMNSLRAEDTAVYYCAKPYGTSAMDYWGQGTLVTVSSASTKGPSVFPLAPSSKSTSGGTAALGCLVKDYFPEPVTVSWNSGALTSGVHTFPAVLQSSGLYSLSSVVTVPSSSLGTQTYICNVNHKPSNTKVDKKVEPKSCDKTHTCPPCPAPPAAAPSVFLFPPKPKDTLMISRTPEVTCVVVDVSHEDPEVKFNWYVDGVEVHNAKTKPREEQYNSTYRVVSVLTVLHQDWLNGKEYKCKVSNKALAAPIEKTISKAKGQPREPQVYTLPPSRDELTKNQVSLTCLVKGFYPSDIAVEWESNGQPENNYKTTPPVLDSDGSFFLYSKLTVDKSRWQQGNVFSCSVMHEALHNHYTQKSLSLSPGK
light: DIQMTQSPSSLSASVGDRVTITCKASQDVGIVVAWYQQKPGKAPKLLIYWASIRHTGVPSRFSGSGSGTEFTLTISSLQPDDFATYYCQQYSNYPLYTFGQGTKVEIKRTVAAPSVFIFPPSDEQLKSGTASVVCLLNNFYPREAKVQWKVDNALQSGNSQESVTEQDSKDSTYSLSSTLTLSKADYEKHKVYACEVTHQGLSSPVTKSFNRGEC
Question: What does the source list for B2?
Answer: EC50 (read off the curve) [1]: ~0.04 µg/mL; EC50 (read off the curve) (human PD-L1-ECD/His): ~0.03 µg/mL; IC50 [2]: 0.167 µg/mL; Max inhibition [2]: 100%; binding result (mouse PD-L1/His): no binding (tested: 1 µg/ml); binding result (human C1q): no binding (tested: about 20 µg/ml (coating concentration)); binding result [3]: no binding; binding result [4]: no binding; binding result [5]: no binding; binding result [6]: no binding; binding result [7]: no binding

B3: hu333-4A2-IgG1mc (antibody)
heavy: EVQLVESGGGLVQPGGSLRLSCAVSGFSLTSYGVHWVRQAPGKGLEWVAVIWAGGSTNYVDSVKGRFTISKDNAKNTVYLQMNSLRAEDTAVYYCAKPYGTSAMDYWGQGTLVTVSSASTKGPSVFPLAPSSKSTSGGTAALGCLVKDYFPEPVTVSWNSGALTSGVHTFPAVLQSSGLYSLSSVVTVPSSSLGTQTYICNVNHKPSNTKVDKKVEPKSCDKTHTCPPCPAPPAAAPSVFLFPPKPKDTLMISRTPEVTCVVVDVSHEDPEVKFNWYVDGVEVHNAKTKPREEQYNSTYRVVSVLTVLHQDWLNGKEYKCKVSNKALAAPIEKTISKAKGQPREPQVYTLPPSRDELTKNQVSLTCLVKGFYPSDIAVEWESNGQPENNYKTTPPVLDSDGSFFLYSKLTVDKSRWQQGNVFSCSVMHEALHNHYTQKSLSLSPGK
light: DIQMTQSPSSLSASVGDRVTITCKASQDVGIVVAWYQQKPGKAPKLLIYWASIRHTGVPSRFSGSGSGTEFTLTISSLQPDDFATYYCQQYSNYPLYTFGQGTKVEIKRTVAAPSVFIFPPSDEQLKSGTASVVCLLNNFYPREAKVQWKVDNALQSGNSQESVTEQDSKDSTYSLSSTLTLSKADYEKHKVYACEVTHQGLSSPVTKSFNRGEC
Question: For B3, which “EC50 (read off the curve)” value [1] is on record?
Answer: Its value is about 0.04 µg/mL.

Question: And the “EC50 (read off the curve)” value (human PD-L1-ECD/His)?
Answer: The value was about 0.03 µg/mL.

Question: What about the IC50 [2] of the same binder?
Answer: Its IC50 is 0.172 µg/mL.

Question: What about the Max inhibition [2] of the same binder?
Answer: Its Max inhibition is 100%.

Question: Does B3 bind (mouse PD-L1/His)?
Answer: Result: no binding (tested: 1 µg/ml)

Question: Does B3 bind (human C1q)?
Answer: Result: no binding (tested: about 20 µg/ml (coating concentration))

Question: Does B3 bind [3]?
Answer: Result: no binding

Question: Does B3 bind [4]?
Answer: Result: no binding

Question: Does B3 bind [5]?
Answer: Result: no binding

Question: Does B3 bind [6]?
Answer: Result: no binding

Question: Does B3 bind [7]?
Answer: Result: no binding

B4: hu333-4B2-IgG1mf (antibody)
heavy: EVQLVESGGGLVQPGGSLRLSCAVSGFSLTSYGVHWVRQAPGKGLEWVAVIWAGGSTNYADSVKGRFTISKDTSKNTVYLQMNSLRAEDTAVYYCAKPYGTSAMDYWGQGTLVTVSSASTKGPSVFPLAPSSKSTSGGTAALGCLVKDYFPEPVTVSWNSGALTSGVHTFPAVLQSSGLYSLSSVVTVPSSSLGTQTYICNVNHKPSNTKVDKKVEPKSCDKTHTCPPCPAPPAAGPSVFLFPPKPKDTLMISRTPEVTCVVVDVSHEDPEVKFNWYVDGVEVHNAKTKPREEQYNSTYRVVSVLTVLHQDWLNGKEYKCKVSNKALAAPIEKTISKAKGQPREPQVYTLPPSRDELTKNQVSLTCLVKGFYPSDIAVEWESNGQPENNYKTTPPVLDSDGSFFLYSKLTVDKSRWQQGNVFSCSVMHEALHNHYTQKSLSLSPGK
light: DIQMTQSPSSLSASVGDRVTITCKASQDVGIVVAWYQQKPGKAPKLLIYWASIRHTGVPSRFSGSGSGTEFTLTISSLQPDDFATYYCQQYSNYPLYTFGQGTKVEIKRTVAAPSVFIFPPSDEQLKSGTASVVCLLNNFYPREAKVQWKVDNALQSGNSQESVTEQDSKDSTYSLSSTLTLSKADYEKHKVYACEVTHQGLSSPVTKSFNRGEC
Question: What does the source list for B4?
Answer: EC50 (read off the curve) [1]: ~0.04 µg/mL; EC50 (read off the curve) (human PD-L1-ECD/His): ~0.03 µg/mL; IC50 [2]: 0.174 µg/mL; Max inhibition [2]: 100%; binding result (mouse PD-L1/His): no binding (tested: 1 µg/ml); binding result (human C1q): no binding (tested: about 20 µg/ml (coating concentration)); binding result [3]: no binding; binding result [4]: no binding; binding result [5]: no binding; binding result [6]: no binding; binding result [7]: no binding
